The record followed here is article PMC3511531, “Structural Requirements for the Procoagulant Activity of Nucleic Acids”.

The data set deals with high molecular weight kininogen (single-chain) (UniProt P01042 19-644). The data set can be described thus: microtiter plate binding assay (streptavidin-peroxidase); Proteins coated at 10 ug/mL in 100 mM sodium carbonate pH 9.5 (4 C, 20 h); blocked with TBS + 3% BSA; biotinylated DNA 0.31-50 ug/mL, 22 C, 2 h; TBS washes; binding buffer composition and pH not stated. The following applies: protein: commercial; hairpin, blunt-ended.
high molecular weight kininogen (single-chain), sequence (P01042 19-644): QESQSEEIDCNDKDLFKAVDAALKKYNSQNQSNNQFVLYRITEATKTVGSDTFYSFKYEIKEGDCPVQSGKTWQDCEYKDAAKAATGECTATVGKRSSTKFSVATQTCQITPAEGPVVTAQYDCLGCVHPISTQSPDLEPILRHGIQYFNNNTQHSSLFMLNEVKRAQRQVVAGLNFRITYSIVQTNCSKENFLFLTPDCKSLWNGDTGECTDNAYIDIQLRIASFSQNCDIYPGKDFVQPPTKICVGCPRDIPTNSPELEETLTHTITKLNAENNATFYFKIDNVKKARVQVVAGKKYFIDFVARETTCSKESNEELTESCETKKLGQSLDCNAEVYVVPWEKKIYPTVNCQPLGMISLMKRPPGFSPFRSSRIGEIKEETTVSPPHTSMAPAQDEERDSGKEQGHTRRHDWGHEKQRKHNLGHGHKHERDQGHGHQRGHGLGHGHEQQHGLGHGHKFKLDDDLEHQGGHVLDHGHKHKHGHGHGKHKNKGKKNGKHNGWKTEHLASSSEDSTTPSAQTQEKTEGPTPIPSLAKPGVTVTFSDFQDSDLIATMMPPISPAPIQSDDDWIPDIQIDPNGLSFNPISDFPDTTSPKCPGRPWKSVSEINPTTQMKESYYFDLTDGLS

A word on the Kd: it is a measure of binding affinity in units of concentration.

B1: 21mer-H1 DNA (structured_DNA)
DNA: GGGAATGGGTATTCCCATCCC
In the case of B1, the Kd came out at 1.82 ± 0.23 µM.
